T1: huWISP-1 (human, UniProt O95388 23-367, limits assumed)
T1 construct: also called human WISP-1 (CCN4)
T1 sequence (looked up): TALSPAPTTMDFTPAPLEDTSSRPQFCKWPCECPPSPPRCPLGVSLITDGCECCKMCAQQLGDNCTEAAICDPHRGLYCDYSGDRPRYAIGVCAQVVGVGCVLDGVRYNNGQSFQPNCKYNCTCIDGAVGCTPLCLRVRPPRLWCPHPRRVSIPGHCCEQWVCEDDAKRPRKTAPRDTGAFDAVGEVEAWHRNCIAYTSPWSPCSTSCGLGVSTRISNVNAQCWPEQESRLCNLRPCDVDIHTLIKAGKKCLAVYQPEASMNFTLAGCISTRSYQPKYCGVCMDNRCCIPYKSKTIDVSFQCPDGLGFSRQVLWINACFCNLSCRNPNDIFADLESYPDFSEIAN

T2: huNOV (human, UniProt P48745 32-357, limits assumed)
T2 construct: also called human NOV (CCN3)
T2 sequence (looked up): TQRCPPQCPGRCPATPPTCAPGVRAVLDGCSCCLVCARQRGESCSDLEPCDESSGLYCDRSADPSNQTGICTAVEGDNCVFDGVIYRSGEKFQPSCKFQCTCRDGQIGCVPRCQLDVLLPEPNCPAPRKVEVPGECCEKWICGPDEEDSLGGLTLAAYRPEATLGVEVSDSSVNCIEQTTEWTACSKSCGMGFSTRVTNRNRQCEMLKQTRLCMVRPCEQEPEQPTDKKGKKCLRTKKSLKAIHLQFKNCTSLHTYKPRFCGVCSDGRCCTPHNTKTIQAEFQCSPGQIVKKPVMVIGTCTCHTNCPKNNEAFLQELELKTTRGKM

T3: huWISP-3 (human, UniProt O95389 24-354, limits assumed)
T3 construct: also called human WISP-3 (CCN6)
T3 sequence (looked up): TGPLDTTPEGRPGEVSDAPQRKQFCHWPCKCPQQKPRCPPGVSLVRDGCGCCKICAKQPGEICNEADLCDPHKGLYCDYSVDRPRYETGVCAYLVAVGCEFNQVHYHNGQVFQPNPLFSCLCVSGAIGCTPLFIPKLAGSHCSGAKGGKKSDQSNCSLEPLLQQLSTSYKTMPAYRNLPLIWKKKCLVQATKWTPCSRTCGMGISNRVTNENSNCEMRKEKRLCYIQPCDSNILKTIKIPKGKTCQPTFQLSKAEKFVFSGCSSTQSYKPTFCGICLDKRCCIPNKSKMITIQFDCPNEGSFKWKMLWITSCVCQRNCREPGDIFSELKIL

T4: recombinant rat CTGF protein (R&D Systems) (rat, UniProt Q9R1E9 25-347)
T4 construct: Bought; also called rCTGF
T4 sequence: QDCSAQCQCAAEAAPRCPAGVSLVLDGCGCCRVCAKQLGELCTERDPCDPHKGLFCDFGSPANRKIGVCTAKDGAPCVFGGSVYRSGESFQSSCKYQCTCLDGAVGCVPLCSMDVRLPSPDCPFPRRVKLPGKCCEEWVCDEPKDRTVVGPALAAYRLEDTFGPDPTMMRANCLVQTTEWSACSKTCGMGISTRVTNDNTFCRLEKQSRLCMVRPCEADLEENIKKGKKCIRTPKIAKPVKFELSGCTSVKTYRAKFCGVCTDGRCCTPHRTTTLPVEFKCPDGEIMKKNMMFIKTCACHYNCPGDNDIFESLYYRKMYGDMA

B1: lipocalin mutein of SEQ ID NO: 3 (designed binder)
chain: QDSTSDLIPAPPLSKVPLQQNFQDNQFHGKWYVVGRAGNNRLREDKDPPKMWATIYELKEDKSYNVTHVHFMTKKCRYIIDTFVPGSQPGEFTLGAIKSGPGMTSPLVRIVSTNYNQHAMVFFKWVNQNREWFTITLYGRTKELTSELKENFIRFSKSLGLPENHIVFPVPIDQCIDGSAWSHPQFEK
notes: Parent hNGAL mutein; also called hNGAL mutein
B2: lipocalin mutein of SEQ ID NO: 7 (designed binder)
chain: QDSTSDLIPAPPLSKVPLQQNFQDNQFHGKWYVVGLAGNYGLRTDKRPSKMFATIYELKEDKSYDVTSVRFEQERCHYTIRTFVPGSQPGEFTTGSIKSRPGQTSSLVRVVSTNYNQHAMVFFKSVIQNREYFAITLYGRTKELTSELKENFIRFSKSLGLPENHIVFPVPIDQCIDGSAWSHPQFEK
notes: as for B1
B3: lipocalin mutein of SEQ ID NO: 15 (designed binder)
chain: QDSTSDLIPAPPLSKVPLQQNFQDNQFQGKWYVVGLAGNAILREDKQPAKMFATIYELKEDKSYDVTSVRFEAKSCKYTIKTFVPGSQPGEFTAGYIKSAPGQTSTLVRVVSTNYNQHAMVFFKHVTQNREIFVITLYGRTKELTSELKENFIRFSKSLGLPENHIVFPVPIDQCIDG
notes: also called hNGAL mutein; not shown: C-terminal His-tag
B4: lipocalin mutein of SEQ ID NO: 29 (designed binder)
chain: QDSTSDLIPAPPLSKVPLQQNFQDNQFHGKWYVVGWAGNIKLREDKDPFKMSATIYELKEDKSYNVTEVVFEQKKCHYIIKTFVPGSQPGEFTLGDIKSPPGETSSLVRVVSTNYNQHAMVFFKKVFQNREFFWITLYGRTKELTSELKENFIRFSKSLGLPENHIVFPVPIDQCIDGSAWSHPQFEK
notes: as for B1
B5: lipocalin mutein of SEQ ID NO: 25 (designed binder)
chain: QDSTSDLIPAPPLSKVPLQQNFQDNQFHGKWYVVGMAGNFRLREDKDPSKMGATIYELKEDKSYNVTQVQFDDKKCLYVIETFVPGSQPGEFTLGAIKSFPGFTSQLVRVVSTNYNQHAMVFFKKVYQNREVFWITLYGRTKELTSELKENFIRFSKSLGLPENHIVFPVPIDQCIDGSAWSHPQFEK
notes: as for B1
B6: lipocalin mutein of SEQ ID NO: 9 (designed binder)
chain: QDSTSDLIPAPPLSKVPLQQNFQDNQFHGKWYVVGLAGNKILRIDKQPAKMFATIYELKEDKSYDVTSVRFEARSCSYTIKTFVPGSQPGEFTAGNIKSAPGQTSTLVRVVSTNYNQHAMVFFKHVSQNRETFVITLYGRTKELTSELKENFIRFSKSLGLPENHIVFPVPIDQCIDGSAWSHPQFEK
notes: as for B1

Legend:
huWISP-1 = molecular target: T1, huWISP-1; assay: ELISA, coated CCN protein
Experimental: (§1) Binding of muteins to closely related proteins of CTGF was tested by an ELISA assay. In detail, a 384-well plate suitable for fluorescence measurements (Greiner FLUOTRAC™ 600, black flat bottom, high-binding) was coated with 20 μl of human CTGF or the other members of the CCN protein family at a concentration of 1 μg/ml in PBS over night at 4° C. After washing with PBS with 0.05% Tween 20, wells were blocked with 100 μl blocking buffer containing 0.1% Tween 20 and 2% BSA (PBS-T/BSA) for 1 h at room temperature. 20 μl of serially diluted muteins starting at 1000 nM were incubated in PBS-T/BSA for 1 h at room temperature (RT).
(§2) The residual supernatants were discarded and 20 μl HRP-labeled anti-NGAL or anti-Strep-Tag antibody was added at a predetermined optimal concentration in PBS-T/BSA and incubated for 1 h at RT. After washing, 20 μl fluorogenic HRP substrate (QuantaBlu, Thermo) was added to each well, and the reaction was allowed to proceed for 2 to 60 minutes. The fluorescence intensity of every well on the plate was read using a fluorescence microplate reader (Tecan). When the signal for human CTGF approached saturation, the cross reactivity to the other proteins was assessed.

huNOV = molecular target: T2, huNOV; assay: ELISA, coated CCN protein
Experimental: as §1, §2

huWISP-3 = molecular target: T3, huWISP-3; assay: ELISA, coated CCN protein
Experimental: as §1, §2

[1] = molecular target: T5, recombinant human CTGF-Fc protein (Creative Biomart) (human); assay: SPR (Biacore)
T5 construct: Bought; also called human CTGF with a human IgG1 Fc Tag
T5 sequence (chain, as listed by the source limits assumed): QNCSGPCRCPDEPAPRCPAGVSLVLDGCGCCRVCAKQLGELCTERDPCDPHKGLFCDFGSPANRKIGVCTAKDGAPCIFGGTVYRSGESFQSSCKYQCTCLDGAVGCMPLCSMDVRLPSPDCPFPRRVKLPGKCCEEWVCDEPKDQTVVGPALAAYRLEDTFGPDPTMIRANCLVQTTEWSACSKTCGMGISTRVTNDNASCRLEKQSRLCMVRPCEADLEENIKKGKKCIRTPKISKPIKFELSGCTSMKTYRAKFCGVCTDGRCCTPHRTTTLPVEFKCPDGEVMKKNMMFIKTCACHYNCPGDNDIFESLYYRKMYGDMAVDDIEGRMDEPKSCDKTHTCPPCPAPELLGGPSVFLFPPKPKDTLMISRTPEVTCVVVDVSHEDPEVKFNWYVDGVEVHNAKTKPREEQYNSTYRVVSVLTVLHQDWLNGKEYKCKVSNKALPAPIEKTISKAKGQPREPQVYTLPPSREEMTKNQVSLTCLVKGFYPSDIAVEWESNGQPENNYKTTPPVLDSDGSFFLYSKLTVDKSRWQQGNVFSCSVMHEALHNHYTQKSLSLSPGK
In short: (§3)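 Lipocalin muteins injected at 25 °C over CTGF either Fc-tagged and captured by anti-human IgG-Fc (0.25-2.5 μg/mL in HBS-EP+, 180 s) or amine-coupled directly to a CM5 chip. Association 180 s, dissociation 900-3600 s, flow 30 μL/min.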

[2] = molecular target: T4, recombinant rat CTGF protein (R&D …); assay: SPR (Biacore)
In short: as §3

Binder	binding result (huWISP-1)	binding result (huNOV)	binding result (huWISP-3)	Kd [1] [µM]	koff [1] [s⁻¹]	kon [1] [M⁻¹ s⁻¹]	Kd [2] [µM]	koff [2] [s⁻¹]	kon [2] [M⁻¹ s⁻¹]
B1	no binding (tested: dilutions starting at 1000 nM)	no binding (tested: dilutions starting at 1000 nM)	no binding (tested: dilutions starting at 1000 nM)	0.0375	0.00749	200000	0.0393	0.0117	297000
B2	no binding (tested: dilutions starting at 1000 nM)	no binding (tested: dilutions starting at 1000 nM)	no binding (tested: dilutions starting at 1000 nM)	0.0602	0.00587	97600	0.0628	0.00754	120000
B3	no binding (tested: dilutions starting at 1000 nM)	no binding (tested: dilutions starting at 1000 nM)	no binding (tested: dilutions starting at 1000 nM)	0.000547	4.47e-05	81700	0.00095	0.000114	120000
B4	no binding (tested: dilutions starting at 1000 nM)	no binding (tested: dilutions starting at 1000 nM)	no binding (tested: dilutions starting at 1000 nM)	0.0112	0.00112	100000	0.018	0.00317	176000
B5	no binding (tested: dilutions starting at 1000 nM)	no binding (tested: dilutions starting at 1000 nM)	no binding (tested: dilutions starting at 1000 nM)	0.00927	0.000248	26800	0.0277	0.00129	46500
B6	no binding (tested: dilutions starting at 1000 nM)	no binding (tested: dilutions starting at 1000 nM)	no binding (tested: dilutions starting at 1000 nM)	0.0128	0.00102	79800	0.016	0.00169	105000
